Reference: article PMC5856381, “Phenotype-specific recombinant haptoglobin polymers co-expressed with C1r-like protein as optimized hemoglobin-binding therapeutics” (BMC Biotechnology, 2018)

Molecular target: T1, cleavage-site mutated recombinant haptoglobin Hp1S (Q101A, R102A), uncleaved proHp (human)
T1 chain: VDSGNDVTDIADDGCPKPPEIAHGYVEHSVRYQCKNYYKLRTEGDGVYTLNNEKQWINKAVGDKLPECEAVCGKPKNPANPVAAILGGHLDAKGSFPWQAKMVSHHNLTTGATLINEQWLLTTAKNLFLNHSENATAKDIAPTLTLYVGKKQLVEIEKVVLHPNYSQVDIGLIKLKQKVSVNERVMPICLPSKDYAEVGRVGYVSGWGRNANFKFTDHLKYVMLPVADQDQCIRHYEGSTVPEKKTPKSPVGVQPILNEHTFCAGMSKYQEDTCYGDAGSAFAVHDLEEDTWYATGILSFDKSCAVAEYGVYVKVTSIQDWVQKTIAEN
Test: non-reducing SDS-PAGE; Coomassie-stained gel of non-reduced protein samples; disulfide-linked dimers and multimers

stoichiometry N: 2
B1: cleavage-site mutated recombinant haptoglobin Hp1S (Q101A, R102A), uncleaved proHp (natural protein)
chain: VDSGNDVTDIADDGCPKPPEIAHGYVEHSVRYQCKNYYKLRTEGDGVYTLNNEKQWINKAVGDKLPECEAVCGKPKNPANPVAAILGGHLDAKGSFPWQAKMVSHHNLTTGATLINEQWLLTTAKNLFLNHSENATAKDIAPTLTLYVGKKQLVEIEKVVLHPNYSQVDIGLIKLKQKVSVNERVMPICLPSKDYAEVGRVGYVSGWGRNANFKFTDHLKYVMLPVADQDQCIRHYEGSTVPEKKTPKSPVGVQPILNEHTFCAGMSKYQEDTCYGDAGSAFAVHDLEEDTWYATGILSFDKSCAVAEYGVYVKVTSIQDWVQKTIAEN
modifications: Uncleaved single-chain proHp1S with signal peptide removed; paper's Q101/R102 (precursor Hp1 numbering) = Q160/R161 of P00738; disulfide-linked dimer; N-glycosylated; C-terminal 8xHis tag omitted / …
